Tests used:
[1] = target: T1, MLO-Y4 cell surface proteins (Mus musculus, UniProt Q62028); test: Crosslinking/co-immunoprecipitation/mass spectrometry (TMT quantitative proteomics) to identify irisin receptors; assay type: binding; settings: co-precipitated protein Pla2r1 (PLA2R_MOUSE)
T1 construct: endogenous in cells; host or cells: MLO-Y4
How it was run: (§1)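 Mouse MLO-Y4 cells were switched to serum-free FreeStyle medium for 4 h, chilled, then exposed to 10 nM His-tagged irisin (or adipsin as control) for 20 min. Cells were crosslinked with 1.5 mM DTSSP (30 min, ice), and bound proteins were pulled down on Ni-NTA and eluted with 250 mM imidazole. Eluates were separated by SDS-PAGE, trypsin-digested in gel, TMT 6-plex labelled and quantified by MS3-based LC-MS/MS on an Orbitrap Fusion Lumos.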

[2] = target: T2, MLO-Y4 cell surface proteins (Mus musculus, UniProt P09671); test: as above; assay type: binding; settings: co-precipitated protein Sod2 (SODM_MOUSE)
T2 construct: endogenous in cells; host or cells: MLO-Y4
T2 sequence (P09671 25-222): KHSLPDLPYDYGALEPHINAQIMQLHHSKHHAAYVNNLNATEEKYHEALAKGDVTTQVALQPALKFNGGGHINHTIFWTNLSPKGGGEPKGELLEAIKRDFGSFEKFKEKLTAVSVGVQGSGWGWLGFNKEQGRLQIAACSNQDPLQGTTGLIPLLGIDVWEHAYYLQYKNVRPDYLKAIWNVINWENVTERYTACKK
How it was run: as §1

T1 sequence (Q62028 27-1487): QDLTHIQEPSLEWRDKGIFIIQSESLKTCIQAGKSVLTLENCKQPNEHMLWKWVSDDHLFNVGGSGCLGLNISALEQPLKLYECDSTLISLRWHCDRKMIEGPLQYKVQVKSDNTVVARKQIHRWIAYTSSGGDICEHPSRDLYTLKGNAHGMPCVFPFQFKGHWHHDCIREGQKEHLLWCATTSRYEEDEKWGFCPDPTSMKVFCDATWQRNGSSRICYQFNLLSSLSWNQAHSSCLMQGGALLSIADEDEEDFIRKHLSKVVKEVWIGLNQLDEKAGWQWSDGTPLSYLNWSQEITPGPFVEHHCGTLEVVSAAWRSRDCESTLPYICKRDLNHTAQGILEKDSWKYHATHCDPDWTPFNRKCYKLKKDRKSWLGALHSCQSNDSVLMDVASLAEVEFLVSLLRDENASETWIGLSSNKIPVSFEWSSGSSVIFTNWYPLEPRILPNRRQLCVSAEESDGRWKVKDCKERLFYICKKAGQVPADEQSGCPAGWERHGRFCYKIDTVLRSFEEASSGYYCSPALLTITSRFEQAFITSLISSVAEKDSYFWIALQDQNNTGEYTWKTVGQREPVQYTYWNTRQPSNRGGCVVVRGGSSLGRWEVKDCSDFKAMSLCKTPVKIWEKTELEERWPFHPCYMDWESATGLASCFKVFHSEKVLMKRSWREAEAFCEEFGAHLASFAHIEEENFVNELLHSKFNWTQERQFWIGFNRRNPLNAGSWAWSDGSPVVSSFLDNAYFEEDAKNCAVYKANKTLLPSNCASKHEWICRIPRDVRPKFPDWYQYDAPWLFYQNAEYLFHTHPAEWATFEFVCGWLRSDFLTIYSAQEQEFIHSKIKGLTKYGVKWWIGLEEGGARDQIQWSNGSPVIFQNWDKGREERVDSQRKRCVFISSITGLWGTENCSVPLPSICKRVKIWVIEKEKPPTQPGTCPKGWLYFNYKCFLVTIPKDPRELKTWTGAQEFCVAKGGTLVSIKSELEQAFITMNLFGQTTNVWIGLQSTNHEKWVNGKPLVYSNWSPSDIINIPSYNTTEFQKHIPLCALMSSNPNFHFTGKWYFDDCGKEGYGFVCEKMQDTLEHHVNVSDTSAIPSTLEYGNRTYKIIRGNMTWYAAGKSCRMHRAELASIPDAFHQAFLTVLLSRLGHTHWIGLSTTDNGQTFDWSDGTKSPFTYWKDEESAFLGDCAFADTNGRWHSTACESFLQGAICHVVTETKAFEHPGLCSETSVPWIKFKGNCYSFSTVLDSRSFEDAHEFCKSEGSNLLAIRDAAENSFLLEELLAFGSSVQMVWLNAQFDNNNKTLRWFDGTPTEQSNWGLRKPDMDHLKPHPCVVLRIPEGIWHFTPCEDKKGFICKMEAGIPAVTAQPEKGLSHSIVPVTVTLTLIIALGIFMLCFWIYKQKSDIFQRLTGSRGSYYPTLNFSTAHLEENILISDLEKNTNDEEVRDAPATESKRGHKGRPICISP

B1: irisin: secreted cleaved form of FNDC5; recombinant human/mouse irisin with C-terminal his tag produced in HEK293 cells (protein)
chain: DSPSAPVNVTVRHLKANSAVVSWDVLEDEVVIGFAISQQKKDVRMLRFIQEVNTTTRSCALWDLEEDTEYIVHVQAISIQGQSPASEPVLFKTPREAEKMASKNKDEVTMKE
modifications: left off: small tags and cut ends
notes: secreted cleaved form of FNDC5; recombinant human/mouse irisin with C-terminal his tag produced in HEK293 cells
B1 was tested, and the TMT signal-to-noise ratio [1] was 142.778, the “irisin/adipsin TMT signal-to-noise ratio” value [1] was 0.275 and the TMT signal-to-noise ratio [2] was 472.133. For the same molecule, the “irisin/adipsin TMT signal-to-noise ratio” value [2] was 0.458.

Reference: patent publication US20210063414A1, “METHODS FOR PREVENTING AND/OR TREATING BONE LOSS CONDITIONS BY MODULATING IRISIN” (Dana-Farber Cancer Institute, Inc., priority 2018, published 2021)
